These results are taken from IntAct's records for PubMed 31749804.

First the molecules themselves.
B1: Complement C1r subcomponent (Homo sapiens), P00736 (parent)
chain: MWLLYLLVPALFCRAGGSIPIPQKLFGEVTSPLFPKPYPNNFETTTVITVPTGYRVKLVFQQFDLEPSEGCFYDYVKISADKKSLGRFCGQLGSPLGNPPGKKEFMSQGNKMLLTFHTDFSNEENGTIMFYKGFLAYYQAVDLDECASRSKSGEEDPQPQCQHLCHNYVGGYFCSCRPGYELQEDTHSCQAECSSELYTEASGYISSLEYPRSYPPDLRCNYSIRVERGLTLHLKFLEPFDIDDHQQVHCPYDQLQIYANGKNIGEFCGKQRPPDLDTSSNAVDLLFFTDESGDSRGWKLRYTTEIIKCPQPKTLDEFTIIQNLQPQYQFRDYFIATCKQGYQLIEGNQVLHSFTAVCQDDGTWHRAMPRCKIKDCGQPRNLPNGDFRYTTTMGVNTYKARIQYYCHEPYYKMQTRAGSRESEQGVYTCTAQGIWKNEQKGEKIPRCLPVCGKPVNPVEQRQRIIGGQKAKMGNFPWQVFTNIHGRGGGALLGDRWILTAAHTLYPKEHEAQSNASLDVFLGHTNVEELMKLGNHPIRRVSVHPDYRQDESYNFEGDIALLELENSVTLGPNLLPICLPDNDTFYDLGLMGYVSGFGVMEEKIAHDLRFVRLPVANPQACENWLRGKNRMDVFSQNMFCAGHPSLKQDACQGDSGGVFAVRDPNTDRWVATGIVSWGIGCSRGYGFYTKVLNYVDWIKKEMEEED
partner: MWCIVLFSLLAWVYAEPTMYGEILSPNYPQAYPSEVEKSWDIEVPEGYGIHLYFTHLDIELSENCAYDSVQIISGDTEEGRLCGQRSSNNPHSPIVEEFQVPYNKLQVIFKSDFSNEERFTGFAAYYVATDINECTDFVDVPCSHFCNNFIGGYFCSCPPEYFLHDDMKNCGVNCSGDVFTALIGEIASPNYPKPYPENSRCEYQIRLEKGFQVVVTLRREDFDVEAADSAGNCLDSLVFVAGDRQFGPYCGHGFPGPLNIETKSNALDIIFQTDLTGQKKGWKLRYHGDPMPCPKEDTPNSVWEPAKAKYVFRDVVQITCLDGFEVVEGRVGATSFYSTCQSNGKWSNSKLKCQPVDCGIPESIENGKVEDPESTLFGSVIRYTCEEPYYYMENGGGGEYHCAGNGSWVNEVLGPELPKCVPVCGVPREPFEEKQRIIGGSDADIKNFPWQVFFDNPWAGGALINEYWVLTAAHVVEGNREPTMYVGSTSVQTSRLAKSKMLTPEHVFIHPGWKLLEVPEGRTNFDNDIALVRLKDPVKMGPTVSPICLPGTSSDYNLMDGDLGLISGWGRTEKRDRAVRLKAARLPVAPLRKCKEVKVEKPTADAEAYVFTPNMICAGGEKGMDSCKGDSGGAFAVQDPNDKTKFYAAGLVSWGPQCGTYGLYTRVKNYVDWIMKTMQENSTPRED

The variants in the assay derive from B1. The note with it: with c1s_human C1S.
Turning to D290G, the “effect of a mutation on the interaction” value is “with no effect”.
